Laboratory results from patent US20210332115A1 (Sanofi, published 2021).

T1: aCls (Comptech A104) (UniProt P09871 16-688)
T1 construct: the active enzyme is a two-chain form of this precursor; also called aC1s
T1 sequence (looked up): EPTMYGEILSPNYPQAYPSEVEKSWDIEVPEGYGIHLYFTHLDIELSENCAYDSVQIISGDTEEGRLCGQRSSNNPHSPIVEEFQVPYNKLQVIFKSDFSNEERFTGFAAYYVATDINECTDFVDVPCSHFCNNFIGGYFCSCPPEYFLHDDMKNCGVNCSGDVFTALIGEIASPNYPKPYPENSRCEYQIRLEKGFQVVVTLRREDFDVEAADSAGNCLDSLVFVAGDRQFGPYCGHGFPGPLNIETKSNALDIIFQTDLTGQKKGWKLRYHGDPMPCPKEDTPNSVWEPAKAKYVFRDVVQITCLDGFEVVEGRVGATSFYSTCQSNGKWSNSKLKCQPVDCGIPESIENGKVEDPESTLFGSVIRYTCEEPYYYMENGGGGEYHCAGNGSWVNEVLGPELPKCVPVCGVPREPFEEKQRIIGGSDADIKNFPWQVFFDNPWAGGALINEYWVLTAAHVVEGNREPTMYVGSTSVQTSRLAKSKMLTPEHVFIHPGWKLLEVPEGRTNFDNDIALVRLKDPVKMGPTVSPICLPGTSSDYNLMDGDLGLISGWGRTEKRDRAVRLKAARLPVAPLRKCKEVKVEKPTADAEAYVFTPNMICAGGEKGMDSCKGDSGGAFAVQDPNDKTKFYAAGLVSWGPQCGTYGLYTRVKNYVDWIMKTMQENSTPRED

T2: C2a (prepared from C2) (UniProt P06681 244-752, limits assumed)
T2 construct: domain: C2a
T2 sequence (looked up): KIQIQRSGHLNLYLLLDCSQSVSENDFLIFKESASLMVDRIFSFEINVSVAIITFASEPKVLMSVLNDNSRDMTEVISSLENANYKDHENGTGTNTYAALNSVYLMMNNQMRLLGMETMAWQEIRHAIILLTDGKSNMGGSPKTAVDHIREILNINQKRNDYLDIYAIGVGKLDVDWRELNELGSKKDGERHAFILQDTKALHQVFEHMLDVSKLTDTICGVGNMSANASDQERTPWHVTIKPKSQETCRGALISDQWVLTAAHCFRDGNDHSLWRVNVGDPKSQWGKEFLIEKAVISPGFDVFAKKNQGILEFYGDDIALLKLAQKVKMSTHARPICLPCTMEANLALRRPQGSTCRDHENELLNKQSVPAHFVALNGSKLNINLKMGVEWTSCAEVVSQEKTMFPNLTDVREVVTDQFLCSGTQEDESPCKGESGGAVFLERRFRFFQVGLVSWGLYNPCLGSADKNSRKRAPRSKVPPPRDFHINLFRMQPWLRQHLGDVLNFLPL

T3: C1r (Comptech A102) (UniProt P00736 18-705)
T3 sequence (looked up): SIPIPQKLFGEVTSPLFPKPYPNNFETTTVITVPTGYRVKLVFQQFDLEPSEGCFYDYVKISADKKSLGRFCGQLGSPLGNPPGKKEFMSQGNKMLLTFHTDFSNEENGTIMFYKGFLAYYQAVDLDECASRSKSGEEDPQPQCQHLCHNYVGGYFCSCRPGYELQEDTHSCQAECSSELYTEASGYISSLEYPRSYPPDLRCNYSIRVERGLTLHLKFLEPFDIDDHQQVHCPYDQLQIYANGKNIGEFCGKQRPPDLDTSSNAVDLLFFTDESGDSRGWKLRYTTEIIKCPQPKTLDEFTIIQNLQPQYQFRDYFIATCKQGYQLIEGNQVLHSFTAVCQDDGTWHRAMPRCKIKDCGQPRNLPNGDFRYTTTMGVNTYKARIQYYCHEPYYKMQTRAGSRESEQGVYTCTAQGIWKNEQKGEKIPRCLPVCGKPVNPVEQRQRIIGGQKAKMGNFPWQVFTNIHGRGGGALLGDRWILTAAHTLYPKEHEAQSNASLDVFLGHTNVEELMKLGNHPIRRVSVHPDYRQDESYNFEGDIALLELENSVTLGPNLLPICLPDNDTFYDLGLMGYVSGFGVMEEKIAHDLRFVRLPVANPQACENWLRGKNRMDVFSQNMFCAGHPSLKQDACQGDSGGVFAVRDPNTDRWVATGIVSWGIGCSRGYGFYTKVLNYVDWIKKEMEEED

B1: VH0/Vκ0 (Chimeric) (antibody, V domains shown)
VH: EVQLVESGGALVKPGGSLKLSCAASGFTFSNYAMSWVRQTPEKRLEWVATISNRGSYTYYPDSVKGRFTISRDNAKNTLYLQMSSLRSEDTALYYCARERPMDYWGQGTSVTVSS
VL: DIVMTQSHKFMSTSVGDRVSITCKASQDVGTAVAWYQQKPGQSPKLLIYWASTRHTGVPDRFTGSGSGTDFTLTITNVQSEDLAVYFCHQHSSNPLTFGAGTKLELK
notes: also called chimeric antibody
B2: VH6/Vκ7-IgG4v2 (antibody)
heavy: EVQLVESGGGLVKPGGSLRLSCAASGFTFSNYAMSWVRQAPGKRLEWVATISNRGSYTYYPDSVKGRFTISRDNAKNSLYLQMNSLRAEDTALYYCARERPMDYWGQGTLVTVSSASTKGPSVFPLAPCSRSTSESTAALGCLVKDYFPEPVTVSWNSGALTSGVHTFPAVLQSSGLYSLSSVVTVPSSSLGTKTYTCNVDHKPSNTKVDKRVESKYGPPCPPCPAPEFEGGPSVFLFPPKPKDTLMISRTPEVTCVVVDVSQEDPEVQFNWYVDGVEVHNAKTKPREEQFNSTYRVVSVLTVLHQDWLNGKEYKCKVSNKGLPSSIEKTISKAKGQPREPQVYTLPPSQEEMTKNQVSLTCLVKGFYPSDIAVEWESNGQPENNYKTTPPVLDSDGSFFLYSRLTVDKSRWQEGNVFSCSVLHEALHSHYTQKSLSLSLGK
light: DIQMTQSPSTLSASVGDRVTITCKASQDVGTAVAWYQQKPGKAPKLLIYWASTRHTGVPDRFSGSGSGTDFTLTISSLQAEDFAVYFCHQHSSNPLTFGQGTKLEIKRTVAAPSVFIFPPSDEQLKSGTASVVCLLNNFYPREAKVQWKVDNALQSGNSQESVTEQDSKDSTYSLSSTLTLSKADYEKHKVYACEVTHQGLSSPVTKSFNRGEC
notes: also called VH6/VK7-IgG4v2; VH6/VK7-IgG4v2_HEK

Columns and labels:
[1] = target: T4, Homo sapiens factor Bb protein (human, UniProt P00751 260-764); experiment: ELISA, factor Bb coated at 2.5 µg/mL, biotinylated antibody titrated, streptavidin-HRP, OD450 background subtracted
T4 construct: Bought from CompTech (A155); also called complement factor Bb; human factor Bb
Experimental: (§1) Briefly, complement and plasma proteins were coated onto ELISA plates at 2. 5 μg/mL in PBS overnight at 4° C. Plates were then blocked with Casein for 1 hour at room temperature and washed four times with 1× DPBS/0.05% Tween-20 followed by a single wash with 1× DPBS. Serial dilutions starting at 50 μg/ml of biotinylated chimeric parent or VH6/VK7-IgG4v2 were added to the plate in PBS/0.1%casein/0.1%Tween-20 and incubated for 2 hours at room temperature. Plates were washed as described and a 1:10,000 dilution of streptavidin-HRP (Southern Biotech 7100-05) in PBS/0.1% casein/0.1% Tween-20 was added to the plate and incubated for 30 minutes at room temperature. Plates were again washed and Ultra TMP ELISA (Thermo 34028) was added to the plate for 1 minute, followed by stop solution). OD 450 nm was read in a plate reader and background at 620 nm was subtracted. Both the chimeric parent (FIG. 8A) and the humanized variant (FIG. 8B) show complete specificity for factor Bb.

[2] = target: T1, aCls (Comptech A104); experiment: ELISA, target coated at 2.5 µg/mL, biotinylated antibody titrated, streptavidin-HRP, OD450 background subtracted
Experimental: as §1

[3] = target: thrombin (EMD Millipore 605195) (UniProt P00734 328-622); experiment: as above
Experimental: as §1

[4] = target: factor D (Competech A136) (UniProt P00746 26-253); experiment: as above
Experimental: as §1

[5] = target: T2, C2a (prepared from C2); experiment: as above
Experimental: as §1

[6] = target: T3, C1r (Comptech A102); experiment: as above
Experimental: as §1

Chain of factor D (Competech A136) (P00746 26-253 limits assumed): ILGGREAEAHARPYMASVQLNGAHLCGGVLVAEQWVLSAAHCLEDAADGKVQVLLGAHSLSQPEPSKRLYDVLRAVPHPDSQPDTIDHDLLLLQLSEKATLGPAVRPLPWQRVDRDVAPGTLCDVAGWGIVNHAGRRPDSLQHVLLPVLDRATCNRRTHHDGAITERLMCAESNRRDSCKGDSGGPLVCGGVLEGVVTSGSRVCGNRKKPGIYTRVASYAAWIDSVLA
T4 sequence (P00751 260-764 limits assumed): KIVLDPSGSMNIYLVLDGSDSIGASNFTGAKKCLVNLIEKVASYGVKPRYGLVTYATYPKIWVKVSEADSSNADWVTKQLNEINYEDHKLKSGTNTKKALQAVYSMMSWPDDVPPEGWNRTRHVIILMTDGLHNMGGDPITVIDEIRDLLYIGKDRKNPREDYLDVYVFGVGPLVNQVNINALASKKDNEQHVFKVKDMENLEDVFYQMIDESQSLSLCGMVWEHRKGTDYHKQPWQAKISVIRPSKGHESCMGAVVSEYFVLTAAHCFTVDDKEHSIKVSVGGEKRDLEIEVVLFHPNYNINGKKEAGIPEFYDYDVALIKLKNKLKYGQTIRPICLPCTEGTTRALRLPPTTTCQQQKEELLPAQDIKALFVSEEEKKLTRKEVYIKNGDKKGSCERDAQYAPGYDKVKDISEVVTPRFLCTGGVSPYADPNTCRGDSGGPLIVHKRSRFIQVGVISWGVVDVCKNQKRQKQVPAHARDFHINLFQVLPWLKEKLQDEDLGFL

Binder	EC50 (read off the curve) [1]	binding result [2]	binding result [3]	binding result [4]	binding result [5]	binding result [6]
B1	~0.01 µg/mL	no binding (tested: about 10^5 ng/mL (log 5 on the axis))	no binding (tested: about 10^5 ng/mL (log 5 on the axis))	no binding (tested: about 10^5 ng/mL (log 5 on the axis))	no binding (tested: about 10^5 ng/mL (log 5 on the axis))	no binding (tested: about 10^5 ng/mL (log 5 on the axis))
B2	~0.02 µg/mL	no binding	no binding	no binding	no binding	no binding
